Experimental findings from US20170165337A1 (IMMATICS BIOTECHNOLOGIES, published 2017) are described below.

The test concerns the target T1, HLA-A*02:01 (human).
T1 construct: MHC class I monomer of the UV-ligand exchange assay; also called peptide-receptive MHC molecules; MHC class I
Put plainly: UV peptide-exchange ELISA. In short, it runs like this: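 Peptide-MHC complexes formed by UV-mediated exchange of a UV-cleavable peptide for the test peptide; exchange yield quantified by β2m ELISA. Diluted 100-fold, captured on streptavidin-coated plates 1 h at 37 °C, detected with HRP anti-β2m and TMB at 450 nm against refolded HLA-A*02:01 monomer standards (15-500 ng/ml).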
Take FIDKFTPPV: the peptide exchange yield was ≥ 75%.
Then VLMDGSVKL, with ≥ 75%; and TIAPVTVAV, with ≥ 75%.
Molecule TLENGVPCV yielded a peptide exchange yield of 50 to 75%.
NLLAHIWAL returned a peptide exchange yield of 50 to 75%.
Turning to VLMWEIYSL, the peptide exchange yield is 50 to 75%.
As to VLIKWFPEV, the peptide exchange yield was ≥ 75%.
Then YMAVTTQEV, with ≥ 75%; and VLLPQETAEIHL, with ≥ 75%; and SLYSALQQA, with 50 to 75%.
Then YLYQEQYFI, with 50 to 75%.
Then YMYEKESEL, with 20 to 50%; and SLDLFNCEV, with ≥ 75%; and VMIQHVENL, with 50 to 75%.
Molecule QVIPQLQTV had a peptide exchange yield of 50 to 75%.
Then RLLEFELAQL, with 50 to 75%.
Then NLQVTQPTV, with 50 to 75%; and FLDMTNWNL, with ≥ 75%; and ELMHGVAGV, with 50 to 75%.
YLPYIFPNI gave a peptide exchange yield of 50 to 75%.
Then GLWGTVVNI, with 50 to 75%; and VTLEFPQLIRV, with 50 to 75%.
Then VLAFLVHEL, with ≥ 75%; and VLWELAHLPTL, with 50 to 75%; and YLLEEKIASL, with 50 to 75%.
Then SLASIHVPL, with 50 to 75%.
On to MLLEHGITL, for which the peptide exchange yield was in the range of 50 to 75%.
